Columns and labels:
[1] = biological target: human FcRn/B2 microglobulin; assay: SPR; pH 6.0
FcγRIV = assay: SPR; mouse FcγR
FcγRIIb [2] = assay: SPR; mouse FcγR
FcγRIII [3] = assay: SPR; mouse FcγR
FcγRI [4] = assay: SPR; mouse FcγR
FcγRIIIa F = assay: SPR; human FcγRIIIa F157
FcγRIIa = assay: SPR; rhesus FcγR
FcγRIIb [5] = assay: SPR; rhesus FcγR
FcγRIII [6] = assay: SPR; rhesus FcγR
FcγRI [7] = assay: SPR; rhesus FcγR
FcγRIIIa V = assay: SPR; human FcγRIIIa V157
FcγRIIa R = assay: SPR; human FcγRIIa R131
FcγRIIa H = assay: SPR; human FcγRIIa H131

Substance | Kd [1] [nM] | Kd (FcγRIV) [nM] | Kd (FcγRIIb [2]) [nM] | Kd (FcγRIII [3]) [nM] | Kd (FcγRI [4]) [nM] | Kd (FcγRIIIa F) [nM] | Kd (FcγRIIa) [nM] | Kd (FcγRIIb [5]) [nM] | Kd (FcγRIII [6]) [nM] | Kd (FcγRI [7]) [nM] | Kd (FcγRIIIa V) [nM] | Kd (FcγRIIa R) [nM] | Kd (FcγRIIa H) [nM]
GAIE LS- | 20.1 |  |  |  |  |  |  |  |  |  |  |  | 
GAALIE LS+ | 1.4 |  |  |  |  |  |  |  |  |  |  |  | 
GAIE LS+ | 1.99 |  |  |  |  |  |  |  |  |  |  |  | 
GAALIE LS- | 19.9 |  |  |  |  |  |  |  |  |  |  |  | 
GAIE |  | 258 | 1150 | 2520 | 212 | 162 | 1400 | 1100 | 87.6 | 0.51 | 130 | 204 | 249
SDIE LS+ | 1.19 |  |  |  |  |  |  |  |  |  |  |  | 
GAALIE |  | 207 | 1620 | 2380 | 440 | 164 | 9100 | 6920 | 91.2 | 0.457 | 131 | 819 | 622
SDIE LS- | 12.7 |  |  |  |  |  |  |  |  |  |  |  | 
SDIE |  | 8.56 | 398 | 1080 | 14.1 | 47.5 | 685 | 540 | 30 | 0.441 | 29.6 | 354 | 769
